In a protein production outcome set (Wang et al. 2014):

Test: label from the status in PepcDB records
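Note: failed if final PepcDB status was selected cloned or expressed and not failed if soluble or beyond.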

MKVFTEKIPNIPWEERPEGYTGPVWRYSKNPIIGRNPVPKGARVFNSAVVPYNGEFVGVFRIDHKNTRPFLHFGRSKDGINWEIEPEEIQWVDVNGEPFQPSYAYDPRVVKIEDTYYITFCTDDHGPTIGVGMTKDFKTFVRLPNAYVPFNRNGVLFPRKINGKYVMLNRPSDNGHTPFGDIFLSESPDMIHWGNHRFVLGRSSYNWWENLKIGAGPYPIETSEGWLLIYHGVTLTCNGYVYSFGAALLDLDDPSKVLYRSRYYLLTPEEEYETVGFVPNVVFPCAALCDADTGRVAIYYGAADTHVALAFGYIDEIVDFVKRNSM
protein production: not failed

MKVIEVTHPIQSNQFITENVAMAFGFFDGMHRGHDKVFQVLDEKAKEHQLKKAVMTFDPHPSVVLNPERKRTTYLTPLSDKLEMIAEHGIDYCIVINFSSRFANVTSDDFIKNYIINNHVKEVIAGFDFTFGKFGKGNMTVLQESKAFNTTIVGKQEMDSEKISTTAIRQALTDGHLQKANDELGYIYRIKGTVVQGEKRGRTIGFPTANVQPSDDYVLPKKGVYAVSMEIGPESKLHRGVANVGVKPTFHDPTRAELVIEVNIFDFNENIYGERVTVYWHHFLRPEVKFDGIDPLVKQMNEDKAQAKHLLSIDFDDDISYNI
protein production: failed

MKVIILGSGSYSGTPKPLCTCENCTRARINPAFRRTRFSVYIEGGILIDPGPDLHYHLEKLNKEVETILITHAHFDHIFGLPDAQVFKKLTIASNPLGIKVARSLAMLAFNSEAPLGNDWDYVELKFWNEYKVNGVKVIHFPVVHSIEMAGGFLIERKNKTVAITGDTGPEIIRDSEVIDLIKGSDLLISEMTHKESIPKTHLGVNDAIELAKIVKAEQTVFAHISHSNYPQEILEKKVREAKISGIVARDFTIIEI
protein production: failed

MKVIKGLTAGLIFLFLCACGGQQIKDPLNYEVEPFTFQNQDGKNVSLESLKGEVWLADFIFTNCETICPPMTAHMTDLQKKLKAGNIDVRIISFSVDPENDKPKQLKKFAANYPLSFDNWDFLTGYSQSEIEEFALKSFKAIVKKPEGEDQVIHQSSFYLVGPDGKVLKDYNGVENTPYDDIISDVKSASTLK
protein production: not failed

MKVKIGLKCSDCEDINYSTTKNAKTNTEKLELKKFCPRENKHTLHKEIKLKS
protein production: failed

MKVLCINPPDDLAALLGDGASFVSTMEPLGLLYVAAACREAGHEVAFIDAYAENLDEETLMRRIRDAAPQVVSFTSFTSNGGFLYTFGRRLRQEMPGVHVLLGNVHATIYARQYLASGCCDVVVRGEGEEVMPALLRVLEEGGDLATVPSIAYVRDGVVAETGGHAFVRDLSTLPLPARDLTRKELYSFARTPNFSLYRTPEGKTEKHLFSSRGCVNRCTFCVAHKNIGIRVRPIDSVIGEVDLLLREYDAGYIFFCDSLFTSRKKRIIELSDALRHHFPGLRWGCEAHVNTIDEDSVRAMAAGGCVDMNFGIESGVDRLLTAVNKRQTTAQIADAIRMVKRVSRINAIGLFILGLPGERPEDSDATIDFACSLPLDMAQFSILTPYPGSPIFEQLRAEGIIDDGVRPGDTLDPEVWRRYSSYASFSDNKPIWVTPEHSVEGLLAAQKRALRRFYLRPRPFLIQLRRLRPADLLDTARTFFKTFF
protein production: failed

MKVLTDLQKRIFAIVKKENGKPIPPGIVVRMMENQAGFPGKQQVYRAIDDLLEWHIFRKSGGATNQLLINYELADPVLDQKFQGILNLGNKNTGFVRPLDDDKTVYYIHFSNLAGALDGDLVEFCPLDKPQVGDKFDAAVLKIVKRSRVLYAGNFLIEYSDFGQEFRIVADNPRFYLTPIVNKASVPAELESNTKVAFQIDEYDPANNLCKVSIQQILGNNDEPLINLKAIMLDHSIVFEDNDVVEQQAAKLQFDEKEQSKPYRKDLTELAFVTIDPATSKDLDDAIYVKRTDKGFVLYVAIADVAYYVQRNSELDIEARHKTSSIYLPGYYVVPMLPERLSNELCSLNPNEKRYVVVCELNFDHEARLNFSEVYPATIVSQRRFAYSEVNDWLEDSDALKDESATVLESLKAGFTLSELIAEQRKKKGTIDLSHSETEVVVDQNYYPIEIRFLTHGKAETMIENLMVVANEAVAWTLTNHKVHLPYRVHPRPSKKKLQMLLENIVELKITQPNFVLDTVTSTQIAAWLKENKDNPSYDIFVILLLRTLGKAFYIVNPLIHFSIGSHHYTHFTSPIRRYADLTVHRLLWMNLFTPERFTDTEREQLNAELEQICETINDTEIKINGCERTANDYLTTLYLSKQVGQTFHGFISAITSFGIFMRMDENNFDGLIKITSIPEDFFVFEKDRMVLRGKRTNKVFRIGDRLTAKLTEIDTVQKRAILTLV
protein production: failed

MKVRADFAFEKVARDWFVRWSKGRSEKYAGQVMRNFERWVFPAIGNLDIRQVRTADVVGCLRVMEARGIVDTLRKTKNSLKMVFAFAVGSGMMEINPVAQIGSGVFERLEHHHHHH
protein production: not failed

MKVSIIVPCYSVASKLPRCVHNLLAQTFTDWELILIDDGSTDNTWDICNSFTKNNAHIHAVHKENGGVSSARNTGIEIAKGEFITFIDSDDYVKPDYLQKLVEGQEADLVLCGFRSSTGIDFTPEPQYLIGDDLSKNIQAIVENDYLLYSPWCKLFRRDIIQKHQHRFDPEIRLGEDTIFCYKYLLYCSSIKVVASNSYFYDGVWGGYKKYVLTRQEVEYLDKAEITTLHDINQHFNCRIDLTYRGYHVAMLKGLYEKFRDYDTFEMYTRTHDVLPPEHFFANHKLSYIFWGIVELETLYVDKEYCAGKLFMQRLHHFFTIPTNQLLSYSYKMRLIHYLVKSKHYTMAHVLLIFLSILKHLEHHHHHH
protein production: failed

MKVVGLDLGGTKIAAGVFDGKRLLSKVVVPTPKEGGERVAEALAEAAERAEREAGVRGEAIGLGTPGPLDFRRGVIRFAPNIPGVQDFPIRRILEEATGRPVFLENDANAAALAEHHLGAAQGEESSLYLTVSTGIGGGVVLGGRVLRGERGQGGELGHLTLLPGGPACGCGLEGCLEALAAGRALERDATYAFQRPVDTRELFRLFQAGDPKAERLVLQAARYVGIGLASLVKAFDPGVVVLGGGVALNAPEGYWEALLEAYRRYLQGWEAPPLRRARLGAEAGLLGAALTAYLEVKDGSG
protein production: not failed

MKVYFDDIYVSTARQFELVDITDQVEQIVEKSGIKNGICLIFVAHSTAAIVANEHERGLMEDILTKIKEFTEPSRSWKHNLIDDNAHAHLGATFLGAERVFPVREGKLVRGTWQNIFLVELDGPRSERHITVEILGE
protein production: not failed

MKWARPSMHSSAQRKLIMTRILSIIGVSLCIAMLSPVLQAANLKTLDVAALPGDRIELKLAFDAPVPAPRGYTTAQPARIALDLPGVTSQLETKSRELGTGNARSVVVVQAQDRTRVIINLTTLAPYSSRVDGNNLFVVIGQGAAAAQASQPTTAMGAQRVAVPPPAPASARPFIPAGVKAIRNVDFQRGELGEGNVVIDLSNPSIAPDIQEQGGKIRVDFAKTQLPEPLRVRLDVKDFATPVQFVSASATGDKASILIEPSGAFDYSAFQTENKLTISVRPLTNEDLDRRAADKPVYTGEKLSLNFQDIDVRSVLQLIADFTNLNLVASDTVQGGITLRLQNVPWDQALDLVLKTKGLDKRKVGSVLLVAPADEIAARERQELESLKQIAELAPLRRELLQVNYAKAADIAKLFQSVTSAESKAEERGSITVDDRTNNIIAYQTQDRLDELRRIVSQLDIPVRQVMIEARIVEANVDYNKQLGVRWGGSTNTSRNGKWTTYGLDDNGDEGGNTNANLTSNIPFVDLGAADATTGIGLGFVTNNTLLDLELSAMEKTGNGEIVSQPKVVTSDKETAKILKGTEIPYQESSSSGATTVSFKEASLSLEVTPQITPDNRIIMEVKVTKDEPDYLNAVLGVPPIKKNEVNAKVLISDGETIVIGGVFSNTQSKVVDKVPFLGDVPYLGRLFRRDVVSESKSELLVFLTPRIMNNQAISVSR
protein production: failed

MKYLASFRTTLKASRYMFRALALVLWLLIAFSSVFYIVNALHQRESEIRQEFNLSSDQAQRFIQRTSDVMKELKYIAENRLSAENGVLSPRGRETQADVPAFEPLFADSDCSAMSNTWRGSLESLAWFMRYWRDNFSAAYDLNRVFLIGSDNLCMANFGLRDMPVERDTALKALHERINKYRNAPQDDSGSNLYWISEGPRPCVGYFYALTPVYLANRLQALLGVEQTIRMENFFLPGTLPMGVTILDENGHTLISLTGPESKIKGDPRWMQERSWFGYTEGFRELVLKKNLPPSSLSIVYSVPVDKVLERIRMLILNAILLNVLAGAALFTLARMYERRIFIPAESDALRLEEHEQFNRKIVASAPVGICILRTADGVNILSNELAHTYLNMLTHEDRQRLTQIICGQQVNFVDVLTSNNTNLQISFVHSRYRNENVAICVLVDVSSRVKMEESLQEMAQAAEQASQSKSMFLATVSHELRTPLYGIIGNLDLLQTKELPKGVDRLVTAMNNSSSLLLKIISDILDFSKIESEQLKIEPREFSPREVMNHITANYLPLVVRKQLGLYCFIEPDVPVALNGDPMRLQQVISNLLSNAIKFTDTGCIVLHVRADGDYLSIRVRDTGVGIPAKEVVRLFDPFFQVGTGVQRNFQGTGLGLAICEKLISMMDGDISVDSEPGMGSQFTVRIPLYGAQYPQKKGVEGLSGKRCWLAVRNASLCQFLETSLQRSGIVVTTYEGQEPTPEDVLITDEVVSKKWQGRAVVTFCRRHIGIPLEKAPGEWVHSVAAPHELPALLARIYLIEMESDDPANALPSTDKAVSDNDDMMILVVDDHPINRRLLADQLGSLGYQCKTANDGVDALNVLSKNHIDIVLSDVNMPNMDGYRLTQRIRQLGLTLPVIGVTANALAEEKQRCLESGMDSCLSKPVTLDVIKQTLTVYAERVRKSRDS
protein production: failed

MKYLLIFLLVLAIFVISVTLGAQNDQQVTFNYLLAQGEYRISTLLAVLFAAGFAIGWLICGLFWLRVRVSLARAERKIKRLENQLSPATDVAVVPHSSAAKE
protein production: failed

MKYNYTVLLSAFTMSVLYSVIYIHSFIIAALITMAFYFLFPYLIFALPLQIMMNKKPKRFSPLYLLYYLAAAFIANAIIFGMLQPSGQSLFQNTAFYLFAVLTALIYWIWDSVLLQKKEA
protein production: failed

MKYQNFIMRILCLLLILAAVVGYNSMQKKDTQAQESQEITALTKRVEKLEEQNTEILSALEEAAKNQEAAIAQAQRDAKDKDDAAKEDAEGADAADTEESDDSENVYKDGTYTGSAQGFGGAITVQVTLANDEITDIQVTSAPGEDSAYLSQGEGVISSIISAQSTDVDTVSGATFSSTGIINAVVDALGKAEN
protein production: failed

MKYSLCTISFRHQLISFTDIVQFAYENGFEGIELWGTHAQNLYMQEYETTERELNCLKDKTLEITMISDYLDISLSADFEKTIEKCEQLAILANWFKTNKIRTFAGQKGSADFSQQERQEYVNRIRMICELFAQHNMYVLLETHPNTLTDTLPSTLELLGEVDHPNLKINLDFLHIWESGADPVDSFQQLRPWIQHYHFKNISSADYLHVFEPNNVYAAAGNRTGMVPLFEGIVNYDEIIQEVRDTDHFASLEWFGHNAKDILKAEMKVLTNRNLEVVTS
protein production: not failed

MKYWMLLFALLWVSYGTGMARKTEKVVNNGIPWFDDRGEIVNAHGACIVEENGRYYLFGEYKSDKSNAFPGFSCYSSDDLVNWKFERVVLPMQSSGILGPDRVGERVKVMKCPSTGEYVMYMHADDMNYKDPHIGYATCSTIAGEYKLHGPLLYEGKPIRRWDMGTYQDTDGTGYLLLHGGIVYRLSKDYRTAEEKVVSGVGGSHGESPAMFKKDGTYFFLFSNLTSWEKNDNFYFTAPSVKGPWTRQGLFAPEGSLTYNSQTTFVFPLKCGEDTIPMFMGDRWSYPHQASAATYVWMPMQVDGTKLSIPEYWPSWDVDKLKPVNPLRKGKTVDLKKITFSKEADWKVEEGRISSNVKGSTLSIPFTGSCVAVMGETNCHSGYARMNILDKKGEKIYSSLVDFYSKANDHATRFKTPQLAEGEYTLVIEVTGISPTWTDKTKRIYGSDDCFVTITDIVKL
protein production: failed
